Sequences and labels used below:
B1: APE15368 (antibody, V domains shown)
VH: QVQLVQSGAEVKKPGASVKVSCKVSGYTFTRFWIQWVRQAPGQGLEWMGEILPGSGSINHNEKFQGRVTMTRDTSTSTVYMELSSLRSEDTAVYYCTRHYGSFDYWGQGTTVTVSS
VL: DIQMTQSPSSLSASVGDRVTITCKASQNVGTDVAWYQQKPGKAPKSLIYSASYRYSGVPSRFSGSGSGTDFTLTISSLQPEDFATYFCHQYESYPFTFGQGTKLEIKR
notes: M6-p1625 series
B2: APE15371 (antibody, V domains shown)
VH: B1 VH with V18I, V24A, T30S, F32Y
VL: B1 VL
notes: M6-p1625 series
B3: APE15370 (antibody, V domains shown)
VH: B1 VH with T30S, F32Y
VL: B1 VL
notes: M6-p1625 series
B4: APE15369 (antibody, V domains shown)
VH: B1 VH with V18I, V24A
VL: B1 VL
notes: M6-p1625 series
B5: APE14970 (antibody, V domains shown)
VH: EVQLVQSGAEVKKPGATVKISCKVSGFNFKDSLMHWVQQAPGKGLEWMGWIDSENGETEYAPGFQDRVTITADTSTDTAYMELSSLRSEDTAVYYCARGGPWFLSYWGQGTTVTVSS
VL: EIVMTQSPATLSVSPGERATLSCRASQIISNNLHWYQQKPGQAPRLLIIYGLQSISGIPARFSGSRSGTEFTLTISSLQSEDFAVYFCQQSNNWPWTFGQGTKLEIKR
notes: M10-1275 series
B6: APE15059 (antibody, V domains shown)
VH: B5 VH
VL: B5 VL with F87Y
notes: M10-1275 series
B7: APE15036 (antibody, V domains shown)
VH: B5 VH with M34V
VL: B5 VL
notes: M10-1275 series
B8: APE14969 (antibody, V domains shown)
VH: B5 VH
VL: B5 VL with R66G
notes: M10-1275 series
B9: APE15034 (antibody, V domains shown)
VH: B5 VH with N55T
VL: B5 VL
notes: M10-1275 series
B10: APE15135 (antibody, V domains shown)
VH: B5 VH with S53N
VL: B5 VL with F87Y
notes: M10-1275 series
B11: APE15037 (antibody, V domains shown)
VH: B5 VH with M34L
VL: B5 VL
notes: M10-1275 series
B12: APE15035 (antibody, V domains shown)
VH: B5 VH with N55S
VL: B5 VL
notes: M10-1275 series
B13: APE15057 (antibody, V domains shown)
VH: B5 VH
VL: B5 VL with I49Y, F87Y
notes: M10-1275 series
B14: APE15053 (antibody, V domains shown)
VH: B5 VH
VL: B5 VL with W96Y
notes: M10-1275 series
B15: APE15032 (antibody, V domains shown)
VH: B5 VH with N55A
VL: B5 VL
notes: M10-1275 series
B16: APE15144 (antibody, V domains shown)
VH: B5 VH with D31L, M34I, S53N, N55A
VL: B5 VL with F87Y
notes: M10-1275 series
B17: APE15033 (antibody, V domains shown)
VH: B5 VH with N55Q
VL: B5 VL
notes: M10-1275 series
B18: APE15031 (antibody, V domains shown)
VH: B5 VH with N55H
VL: B5 VL
notes: M10-1275 series
B19: APE15055 (antibody, V domains shown)
VH: B5 VH
VL: B5 VL with W94Y
notes: M10-1275 series
B20: APE15137 (antibody, V domains shown)
VH: B5 VH with D31Y
VL: B5 VL with F87Y
notes: M10-1275 series
B21: APE15136 (antibody, V domains shown)
VH: B5 VH with D31E
VL: B5 VL with F87Y
notes: M10-1275 series
B22: APE15058 (antibody, V domains shown)
VH: B5 VH
VL: B5 VL with I49Y
notes: M10-1275 series
B23: APE15056 (antibody, V domains shown)
VH: B5 VH
VL: B5 VL with W94F
notes: M10-1275 series
B24: APE15167 (antibody, V domains shown)
VH: B5 VH with D31E, S53V, N55A
VL: B5 VL with F87Y
notes: M10-1275 series
B25: APE15038 (antibody, V domains shown)
VH: B5 VH with M34I
VL: B5 VL
notes: M10-1275 series
B26: APE14971 (antibody, V domains shown)
VH: B5 VH
VL: B5 VL with I49Y, R66G, F87Y
notes: M10-1275 series
B27: APE15138 (antibody, V domains shown)
VH: B5 VH with D31L
VL: B5 VL with F87Y
notes: M10-1275 series
B28: APE15145 (antibody, V domains shown)
VH: B5 VH with D31L, S53N, N55A
VL: B5 VL with F87Y
notes: M10-1275 series
B29: APE15054 (antibody, V domains shown)
VH: B5 VH
VL: B5 VL with W96F
notes: M10-1275 series
B30: APE15141 (antibody, V domains shown)
VH: B5 VH with D31E, S53N, N55A
VL: B5 VL with F87Y
notes: M10-1275 series
B31: APE15143 (antibody, V domains shown)
VH: B5 VH with D31Y, S53N, N55A
VL: B5 VL with F87Y
notes: M10-1275 series
B32: APE15139 (antibody, V domains shown)
VH: B5 VH with D31E, M34I, S53V, N55A
VL: B5 VL with F87Y
notes: M10-1275 series

Where a chain is given by its changes, count along the chain named.

This passage reports Kd results from US20260265385A1 (ANAPTYSBIO, published 2026).

The target in the first experiment is T1, recombinant human IL-2Rβ (extracellular domain, Ala1-Thr215) (human, UniProt P14784 27-240).
T1 construct: extracellular domain; Analyte in SPR; Ala1-Thr215 is counted on the mature protein; also called human LL-2Rβ; Human IL-2RB
T1 sequence (looked up): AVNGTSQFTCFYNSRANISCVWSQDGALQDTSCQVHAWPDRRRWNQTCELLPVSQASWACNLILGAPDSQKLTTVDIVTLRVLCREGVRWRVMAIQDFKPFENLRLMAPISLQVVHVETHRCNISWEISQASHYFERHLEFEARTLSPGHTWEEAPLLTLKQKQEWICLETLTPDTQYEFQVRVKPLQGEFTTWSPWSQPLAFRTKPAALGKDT
The experiment is described as follows: SPR, antibody captured on Protein A chip. The method, then:
(§1) Surface plasmon resonance (SPR) was used to determine the binding affinities. The M6-1625 and M10-1275 antibodies were captured onto a Cytiva Protein A Chip for 60 seconds at 0.5 μg/mL for 60 seconds. The antibodies were exposed to recombinant human LL-2Rβ or cynomolgus LL-2Rβ (corresponding to residues Ala1-Thr215 of the extracellular domains excluding the signal peptide) at typical concentrations ranging from 0.4 nM to 11 nM with typical 300 second associations and 1200 second dissociations using a BiacoreS200 instrument. Sensorgrams were fit globally using a 1:1 binding model in the Biacore T200 Evaluation Software to calculate on- and off-rates and KD values.
(SPR reads the build-up and loss of mass on a sensor chip optically.)
Regarding B1, the Kd was determined as 0.0867 nM.

Regarding B2, the Kd was 0.0917 nM.

As to B3, the Kd amounted to 0.11 nM.

On to B4, for which the Kd was 0.0674 nM.

Take B5: the Kd was found to be 0.074 nM.

As to B6, the Kd was 0.0697 nM.

Turning to B7, the Kd came out at 0.165 nM.

On to B8, for which the Kd was 0.187 nM.

With B9, the Kd is 0.19 nM.

B10: the Kd is 0.0282 nM.

For B11, the Kd stood at 0.124 nM.

On to B12, for which the Kd amounted to 0.147 nM.

Turning to B13, the Kd turned out to be 0.144 nM.

Turning to B14, the Kd was 0.0915 nM.

For B15, the Kd was 0.0738 nM.

Take B16: the Kd came to 0.0297 nM.

B17: the Kd turned out to be 0.106 nM.

Take B18: the Kd was 0.108 nM.

In the case of B19, the equilibrium dissociation constant (Kd) is 0.369 nM.

Turning to B20, the Kd was found to be 0.0518 nM.

For B21, the Kd turned out to be 0.0481 nM.

In the case of B22, the Kd was found to be 0.154 nM.

For B23, the Kd was 0.122 nM.

As for B24, the Kd worked out at 0.045 nM.

On to B25, for which the Kd was found to be 0.12 nM.

As for B26, the Kd worked out at 0.278 nM.

As for B27, the Kd amounted to 0.0436 nM.

Regarding B28, the Kd was 0.0296 nM.

Consider B29, for which the Kd is 0.429 nM.

On to B30, for which the Kd worked out at 0.022 nM.

With B31, the Kd stood at 0.0251 nM.

With B32, the Kd worked out at 0.0352 nM.

The next experiment has as its target T2, recombinant cynomolgus IL-2Rβ (extracellular domain, Ala1-Thr215) (cynomolgus, UniProt Q38J85 27-240).
T2 construct: extracellular domain; Analyte in SPR; also called cynomolgus LL-2Rβ; Cyno IL-2RB
T2 sequence (looked up): T1 sequence (looked up) with Q7R, A66T, T74A, L83M, V92M, E127K, L158M
In words: SPR, antibody captured on Protein A chip. The method, then:
as §1
B1: the Kd came to 0.0783 nM.

Turning to B2, the Kd came to 0.0821 nM.

Consider B3, for which the Kd is 0.0982 nM.

B4: the Kd was 0.0634 nM.

Take B5: the Kd came to 0.014 nM.

Consider B6, for which the Kd turned out to be 0.0159 nM.

On to B7, for which the Kd was determined as 0.0195 nM.

Consider B8, for which the Kd stood at 0.018 nM.

B9: the Kd came out at 0.0222 nM.

B10: the Kd is 0.0105 nM.

Take B11: the Kd stood at 0.0171 nM.

With B12, the Kd came out at 0.0194 nM.

Turning to B13, the dissociation constant Kd was found to be 0.024 nM.

Consider B14, for which the Kd was 0.0399 nM.

Regarding B15, the Kd came out at 0.0124 nM.

Consider B16, for which the Kd was 0.0116 nM.

Regarding B17, the Kd was 0.0128 nM.

As to B18, the Kd came to 0.0189 nM.

Turning to B19, the Kd amounted to 0.0838 nM.

As to B20, the Kd was 0.0174 nM.

In the case of B21, the Kd was found to be 0.0114 nM.

On to B22, for which the Kd stood at 0.0223 nM.

As to B23, the Kd is 0.0198 nM.

Turning to B24, the Kd stood at 0.00655 nM.

Turning to B25, the Kd was 0.0185 nM.

Turning to B26, the Kd turned out to be 0.026 nM.

With B27, the Kd is 0.0163 nM.

Consider B28, for which the Kd was determined as 0.0108 nM.

For B29, the Kd worked out at 0.108 nM.

For the molecule B30, the Kd worked out at 0.0103 nM.

For B31, the Kd was determined as 0.00972 nM.

In the case of B32, the dissociation constant (Kd) came out at 0.00923 nM.

A word on the Kd: it is a measure of binding affinity in units of concentration.
